Numbering of substitutions follows the chain as printed. “And” between values parts separate entries of the source, which are not always exact repeats. Equal entries are not always repeated.
B1: anti-CLEC12a VHH 1A10-CD19 D1+2 C term mutant #2 (VHH)
VHH: QVQLQESGGGLVQVGESLRLSCVVSGDTRSINLMGWYRQAPGKQRELVAACASDGNTYYADSVKGRFTISRDNAEKTVYLQMNNLKPDDTAVYYCDANSRGNYYSGQGTLVTVSS
B2: anti-CLEC12a VHH 1B12-G4Sx4-CD19 D1+2 C term mutant #2-His (VHH)
VHH: QVQLQASGGGLVQAGGSLRLSCAASGSIFAINEINLMGWYRQAPGKQRELVAACASDGNTYYADSVKGRFTISRDNAEKTVYLQMNNLKPDDTAVYYCDANSRGNYYSGQGTQVTVSS
B3: #329 (VHH)
VHH: B2 VHH with A6Q, V12A, A14T, R19I
notes: also called anti CLEC12a VHH 2F5-G4Sx4-CD19 C-term mutant #2-His
B4: anti-CLEC12a VHH 1B1-G4Sx4-CD19 D1+2 C term mutant #2-His (VHH)
VHH: B2 VHH with A6E
B5: CD19 mutant #2-G4Sx4-anti CLEC12a VHH 2H3-myc-His (VHH)
chain: PEEPLVVKVEEGDTAVLPCLKGTSDGPTQQLTWSRESPLKPFLKYSLGVPGLGVHVRPDAISVVIRNVSQQMGGFYLCQPGPPSEKAWQPGWTVNVEGSGELFRWNVSDLGGLGCGLKNRSSEGPSSPSGKLMSPKLYVWAKDRPEIWEGEPPCLPPRDSLNQSLSQDLTMAPGSTLWLSCGVPPDSVSRGPLSWTHVHPKGPKSLLSLELKDDRPAREMIVDETGLLLPRATAQDAGKWYCSRGNVTTSYHLEITARPVKAHSDLRTGGWKGGGGSGGGGSGGGGSGGGGSQVQLQESGGGLVQAGGSLRLSCVASGSIRSINVMGWYRQAPGKQRELVAACASDGNTYYADSVKGRFTISRDNAEKTVYLQMNNLKPDDTAVYYCDANSRGNYYSGQGTQVTVSSTSGPGGQGAEQKLISEEDLGAHHHHHHGAS
notes: CD19 variant-VHH fusion
B6: CD19 mutant #2-G4Sx4-anti CLEC12a VHH 1G6-myc-His (VHH)
chain: PEEPLVVKVEEGDTAVLPCLKGTSDGPTQQLTWSRESPLKPFLKYSLGVPGLGVHVRPDAISVVIRNVSQQMGGFYLCQPGPPSEKAWQPGWTVNVEGSGELFRWNVSDLGGLGCGLKNRSSEGPSSPSGKLMSPKLYVWAKDRPEIWEGEPPCLPPRDSLNQSLSQDLTMAPGSTLWLSCGVPPDSVSRGPLSWTHVHPKGPKSLLSLELKDDRPAREMIVDETGLLLPRATAQDAGKWYCSRGNVTTSYHLEITARPVKAHSDLRTGGWKGGGGSGGGGSGGGGSGGGGSQVQLQQSGGGLVQAGGSLRLSCAASGSIFAINEINLMGWYRQAPGKQRELVAACASDGNTYYADSVKGRFTISRDNAEKTVYLQMNNLKPDDTAVYYCDANSRGNYYSGQGTQVTVSSTSGPGGQGAEQKLISEEDLGAHHHHHHGAS
notes: CD19 variant-VHH fusion
B7: CD19 mutant #2-G4Sx4-anti CLEC12a VHH 2F5-myc-His (VHH)
chain: B6 chain with V304A, A306T, R311I
notes: CD19 variant-VHH fusion
B8: CD19 mutant #2-G4Sx4-anti CLEC12a VHH 2F3-myc-His (VHH)
chain: PEEPLVVKVEEGDTAVLPCLKGTSDGPTQQLTWSRESPLKPFLKYSLGVPGLGVHVRPDAISVVIRNVSQQMGGFYLCQPGPPSEKAWQPGWTVNVEGSGELFRWNVSDLGGLGCGLKNRSSEGPSSPSGKLMSPKLYVWAKDRPEIWEGEPPCLPPRDSLNQSLSQDLTMAPGSTLWLSCGVPPDSVSRGPLSWTHVHPKGPKSLLSLELKDDRPAREMIVDETGLLLPRATAQDAGKWYCSRGNVTTSYHLEITARPVKAHSDLRTGGWKGGGGSGGGGSGGGGSGGGGSQVQLQAFGGGLVQPGGSLRLSCVVSGTMFSGKDVNWLRQAPGKHVEVVATVSSDGGTDYADFVKGRFTISRDDAKNTVNLQMNSLEPEDTANYMCHFLWGRHYWGQGTQVTVSSTSGPGGQGAEQKLISEEDLGAHHHHHHGAS
notes: CD19 variant-VHH fusion
B9: CD19 ECD N term mutant#1-EGFR Fn3 (designed binder)
chain: PEEPLVVKVEEGDDAWLRCLKGTSDGPTSQVTWSRESPLKPFLKYSLGVPGLGVHIRPLAIGLVIPNVSQQMGGFYLCQPGPPSEKAWQPGWTVNVEGSGELFRWNVSDLGGLGCGLKNRSSEGPSSPSGKLMSPKLYVWAKDRPEIWEGEPPCLPPRDSLNQSLSQDLTMAPGSTLWLSCGVPPDSVSRGPLSWTHVHPKGPKSLLSLELKDDRPAREMIVDETGLLLPRATAQDAGKYYCHRGNRTISYHLEITARPVSAHTPLRTGGWKGGGGSGGGGSGGGGSGGGGSVSDVPRDLEVVAATPTSLLISWFDYAVTYYRITYGETGGNSPVQEFTVPGWISTATISGLKPGVDYTITVYAVTDNSHWPFRSTPISTNYRTEIDKPPQHHHHHH
notes: also called construct #227; CD19-Fn3/EGFR
B10: CD19 ECD N term mutant#2-EGFR Fn3 (designed binder)
chain: PEEPLVVKVEEGDTAVLPCLKGTSDGPTQQLTWSRESPLKPFLKYSLGVPGLGVHVRPDAISVVIRNVSQQMGGFYLCQPGPPSEKAWQPGWTVNVEGSGELFRWNVSDLGGLGCGLKNRSSEGPSSPSGKLMSPKLYVWAKDRPEIWEGEPPCLPPRDSLNQSLSQDLTMAPGSTLWLSCGVPPDSVSRGPLSWTHVHPKGPKSLLSLELKDDRPAREMIVDETGLLLPRATAQDAGKWYCSRGNVTTSYHLEITARPVKAHSDLRTGGWKGGGGSGGGGSGGGGSGGGGSVSDVPRDLEVVAATPTSLLISWFDYAVTYYRITYGETGGNSPVQEFTVPGWISTATISGLKPGVDYTITVYAVTDNSHWPFRSTPISTNYRTEIDKPPQHHHHHH
notes: Fusion protein; also called CD19-Fn3/EGFR
B11: CD19 ECD N term mutant#3-EGFR Fn3 (designed binder)
chain: PEEPLVVKVEEGDTAALWCLKGTSDGPTQQLTWSRESPLKPFLKLSLGLPGMGVHMRPGAVSAVISNVSQQMGGFYLCQPGPPSEKAWQPGWTVNVEGSGELFRWNVSDLGGLGCGLKNRSSEGPSSPSGKLMSPKLYVWAKDRPEIWEGEPPCLPPRDSLNQSLSRDMTVAPGSTLWLSCGVPPDSVSRGPLSWTHVHPKGPKSLLSLELKDDRPARDMWVMGTSLILPRATAQDAGKYYCHRGNLTMSFHLEVVARPVKAHSDLRTGGWKGGGGSGGGGSGGGGSGGGGSVSDVPRDLEVVAATPTSLLISWFDYAVTYYRITYGETGGNSPVQEFTVPGWISTATISGLKPGVDYTITVYAVTDNSHWPFRSTPISTNYRTEIDKPPQHHHHHH
notes: Fusion protein; also called construct #229; CD19-Fn3/EGFR
B12: #333 (VHH)
fusion protein, single chain: B5 chain with A306V, G308E, A316V, S319D, I320T, V325L, Q402L
notes: also called CD19 mutant #2-G4Sx4-anti CLEC12a VHH 1A10-His
B13: #334 (VHH)
fusion protein, single chain: B6 chain with Q298E
notes: also called CD19 mutant #2-G4Sx4-anti CLEC12a VHH 1B1-His
B14: #335 (VHH)
fusion protein, single chain: B6 chain with Q297V, Q298E, Q405L
notes: also called CD19 mutant #2-G4Sx4-anti CLEC12a VHH 2C8-His
B15: #290 (VHH)
fusion protein, single chain: PEEPLVVKVEEGDTAVLPCLKGTSDGPTQQLTWSRESPLKPFLKYSLGVPGLGVHVRPDAISVVIRNVSQQMGGFYLCQPGPPSEKAWQPGWTVNVEGSGELFRWNVSDLGGLGCGLKNRSSEGPSSPSGKLMSPKLYVWAKDRPEIWEGEPPCLPPRDSLNQSLSQDLTMAPGSTLWLSCGVPPDSVSRGPLSWTHVHPKGPKSLLSLELKDDRPAREMIVDETGLLLPRATAQDAGKWYCSRGNVTTSYHLEITARPVKAHSDLRTGGWKGGGGSGGGGSGGGGSGGGGSQVQLQESGGGLVQPGGSLRLSCAASGFTFNSYAMTWVRQAPGKGLEWVSDINSGGGSTNYADSVKGRFTISRDNAKNTLYLQMNSLKPEDTAVYYCATELRGSDYYRGPIREYAYWGQGTLVTVSSTSGPGGQGAEQKLISEEDLGAHHHHHHGAS
notes: also called construct #290; CD19 mutant #2-G4Sx4-anti CLEC12a VHH 1H1-His

What follows are binders tested against T1, Clec12A (human, UniProt Q5QGZ9 1-265) (assay: sandwich ELISA: coated with FMC63, construct titrated (x-axis ug/ml), followed by Clec12A-bio, detected by HRP-SA).
T1 construct: whole, on cells; also called CLL-1; MICL
T1 sequence (looked up): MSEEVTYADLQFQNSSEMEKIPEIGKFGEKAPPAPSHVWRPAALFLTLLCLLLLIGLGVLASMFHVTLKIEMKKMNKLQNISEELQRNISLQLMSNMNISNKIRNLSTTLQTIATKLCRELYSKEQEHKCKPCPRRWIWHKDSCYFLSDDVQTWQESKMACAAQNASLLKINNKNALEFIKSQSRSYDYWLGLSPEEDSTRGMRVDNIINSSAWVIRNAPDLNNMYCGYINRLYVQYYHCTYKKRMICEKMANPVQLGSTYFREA
For B1, the “C of the 4-P fit (midpoint)” value was 0.00751 µg/mL and the EC50 was 0.0075 µg/mL and 0.161 nM. In the case of B2, the “C of the 4-P fit (midpoint)” value is reported as 0.015 µg/mL and the EC50 is reported as 0.015 µg/mL and 0.323 nM. With B3 the “C of the 4-P fit (midpoint)” value was 0.0107 µg/mL and the EC50 was 0.0107 µg/mL and 0.23 nM. B4 was tested, and the “C of the 4-P fit (midpoint)” value was 0.00648 µg/mL and the EC50 was 0.0065 µg/mL and 0.14 nM.

The binders below were run against T1, Clec12A (assay: binding to U937 cells; supernatant; MW = 46kDa).
B5 was tested, and the EC50 was 4.87 nM. Binder B6 has an EC50 of 3.4 nM. Work on B7 yielded an EC50 of 3.29 nM. Binder B8 has an EC50 of 3.76 nM.

These binders were tested against T2, EGFR (UniProt P00533 25-1210, limits assumed) (assay: binding to EGFR positive cells (data not shown)).
T2 construct: whole, on cells; also called EGFR positive cells; EGFR positive H292 cells
B9: binds. B10: binds. B11: binds.

Biological target: T1, Clec12A
Assay: sandwich ELISA: coated with FMC63, construct titrated (x-axis ug/ml), followed by Clec12A-bio, detected by HRP-SA
Remark: another data set of the same source
In the case of B5, the “C of the 4-P fit (midpoint)” value is reported as 0.0201 µg/mL and the EC50 is reported as 0.0201 µg/mL and 0.432 nM. B12 was tested, and the “C of the 4-P fit (midpoint)” value was 0.0106 µg/mL and the EC50 was 0.0106 µg/mL and 0.228 nM. In the case of B6, the “C of the 4-P fit (midpoint)” value is reported as 0.0113 µg/mL and the EC50 is reported as 0.0113 µg/mL and 0.243 nM. With B13 the “C of the 4-P fit (midpoint)” value was 0.0112 µg/mL and the EC50 was 0.0112 µg/mL and 0.241 nM. With B14 the “C of the 4-P fit (midpoint)” value was 0.0108 µg/mL and the EC50 was 0.0108 µg/mL and 0.232 nM. In the case of B7, the “C of the 4-P fit (midpoint)” value is reported as 0.00983 µg/mL and the EC50 is reported as 0.0098 µg/mL and 0.21 nM. In the case of B15, the “C of the 4-P fit (midpoint)” value is reported as 0.037 µg/mL and the EC50 is reported as 0.037 µg/mL and 0.796 nM.

What follows are binders tested against T1, Clec12A (assay: binding to U937 cells; supernatant).
B5 gave an EC50 of 0.224 µg/mL. B6 gave an EC50 of 0.157 µg/mL. For B7, the EC50 was 0.151 µg/mL. With B8 the EC50 was 0.173 µg/mL.

— patent US20210079060A1 (ALETA BIOTHERAPEUTICS, published 2021)
